Target: endogenous ARID2 (293T cells) (UniProt Q68CP9 2-1835, limits assumed)
Experiment: immunoprecipitation of endogenous BAF/PBAF components in 293T cells
Method: For other immunoprecipitations, primary antibodies were incubated with lysates for 2 hr followed by Protein A magnetic beads (Life Technologies, 10001D).

Chain of endogenous ARID2 (293T cells) (Q68CP9 2-1835 limits assumed): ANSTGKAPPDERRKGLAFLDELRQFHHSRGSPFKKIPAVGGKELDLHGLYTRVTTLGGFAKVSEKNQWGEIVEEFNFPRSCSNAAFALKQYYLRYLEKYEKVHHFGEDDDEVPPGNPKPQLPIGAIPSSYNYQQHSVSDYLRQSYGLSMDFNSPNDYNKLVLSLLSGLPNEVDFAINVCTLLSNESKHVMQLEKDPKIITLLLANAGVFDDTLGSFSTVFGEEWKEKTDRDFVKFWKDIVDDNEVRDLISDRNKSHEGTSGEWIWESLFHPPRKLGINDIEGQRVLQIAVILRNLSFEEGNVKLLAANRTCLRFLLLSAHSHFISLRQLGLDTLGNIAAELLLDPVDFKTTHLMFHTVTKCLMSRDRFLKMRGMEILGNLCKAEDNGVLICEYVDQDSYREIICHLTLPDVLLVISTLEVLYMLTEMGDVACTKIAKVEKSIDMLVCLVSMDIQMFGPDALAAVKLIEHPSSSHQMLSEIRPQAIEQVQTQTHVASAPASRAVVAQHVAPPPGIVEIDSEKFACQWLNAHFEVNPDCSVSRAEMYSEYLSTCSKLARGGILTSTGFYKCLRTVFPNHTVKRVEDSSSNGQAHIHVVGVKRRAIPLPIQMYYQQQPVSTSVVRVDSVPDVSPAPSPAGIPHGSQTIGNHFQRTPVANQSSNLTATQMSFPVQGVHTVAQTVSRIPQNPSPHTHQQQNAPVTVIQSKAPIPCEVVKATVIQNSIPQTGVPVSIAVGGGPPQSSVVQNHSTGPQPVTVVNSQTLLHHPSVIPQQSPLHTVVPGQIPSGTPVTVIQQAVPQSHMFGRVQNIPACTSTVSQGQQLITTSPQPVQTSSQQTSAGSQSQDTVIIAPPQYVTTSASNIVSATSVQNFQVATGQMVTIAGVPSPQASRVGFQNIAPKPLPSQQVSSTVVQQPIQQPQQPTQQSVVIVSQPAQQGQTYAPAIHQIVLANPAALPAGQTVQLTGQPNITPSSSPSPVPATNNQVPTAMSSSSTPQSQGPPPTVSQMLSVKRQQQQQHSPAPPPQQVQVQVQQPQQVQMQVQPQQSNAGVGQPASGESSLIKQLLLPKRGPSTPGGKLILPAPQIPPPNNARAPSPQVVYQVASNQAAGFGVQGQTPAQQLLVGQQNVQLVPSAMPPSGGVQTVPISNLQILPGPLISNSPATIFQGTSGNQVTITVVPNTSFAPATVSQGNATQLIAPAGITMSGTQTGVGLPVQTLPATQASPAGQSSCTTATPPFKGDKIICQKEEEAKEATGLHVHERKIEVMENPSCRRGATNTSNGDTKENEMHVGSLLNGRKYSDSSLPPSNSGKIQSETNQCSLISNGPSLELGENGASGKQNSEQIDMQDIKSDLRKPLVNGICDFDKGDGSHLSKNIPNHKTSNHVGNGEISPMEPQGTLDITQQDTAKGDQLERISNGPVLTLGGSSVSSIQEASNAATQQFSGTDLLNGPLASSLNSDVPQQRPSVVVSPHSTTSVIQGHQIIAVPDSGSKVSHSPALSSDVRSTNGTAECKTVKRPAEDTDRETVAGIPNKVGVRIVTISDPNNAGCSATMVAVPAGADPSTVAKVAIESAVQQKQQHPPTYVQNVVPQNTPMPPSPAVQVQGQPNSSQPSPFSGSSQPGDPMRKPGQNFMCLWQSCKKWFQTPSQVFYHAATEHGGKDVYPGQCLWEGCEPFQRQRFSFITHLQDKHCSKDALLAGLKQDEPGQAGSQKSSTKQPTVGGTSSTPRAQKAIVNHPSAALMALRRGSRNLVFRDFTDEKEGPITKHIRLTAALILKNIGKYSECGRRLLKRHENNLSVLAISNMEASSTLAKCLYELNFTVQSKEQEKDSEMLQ

B1: endogenous bromodomain-containing protein 9 (BRD9) (other, human, UniProt Q9H8M2 1-597, looked up)
chain: MGKKHKKHKAEWRSSYEDYADKPLEKPLKLVLKVGGSEVTELSGSGHDSSYYDDRSDHERERHKEKKKKKKKKSEKEKHLDDEERRKRKEEKKRKREREHCDTEGEADDFDPGKKVEVEPPPDRPVRACRTQPAENESTPIQQLLEHFLRQLQRKDPHGFFAFPVTDAIAPGYSMIIKHPMDFGTMKDKIVANEYKSVTEFKADFKLMCDNAMTYNRPDTVYYKLAKKILHAGFKMMSKQAALLGNEDTAVEEPVPEVVPVQVETAKKSKKPSREVISCMFEPEGNACSLTDSTAEEHVLALVEHAADEARDRINRFLPGGKMGYLKRNGDGSLLYSVVNTAEPDADEEETHPVDLSSLSSKLLPGFTTLGFKDERRNKVTFLSSATTALSMQNNSVFGDLKSDEMELLYSAYGDETGVQCALSLQEFVKDAGSYSKKVVDDLLDQITGGDHSRTLFQLKQRRNVPMKPPDEAKVGDTLGDSSSSVLEFMSMKSYPDVSVDISMLSSLGKVKKELDPDDSHLNLDETTKLLQDLHEAQAERGGSRPSSNLSSLSNASERDQHHLGSPSRLSVGEQPDVTHDPYEFLQSPEPAASAKT
notes: Endogenous protein in cell lysates; also called bromodomain-containing factor 9
binding result: no binding

Source: patent US20200129532A1 (SALK INSTITUTE FOR BIOLOGICAL STUDIES, published 2020)
